Laboratory results as given in paper PMC7804408.

Biological target: trigger factor (TF) (E. coli) (UniProt P0A850)
Experiment: SPR; TF immobilised on a CM5 chip by amine coupling, analytes injected at 20 μL/min for 90 s; Biacore X, 22 °C; 10 mM HEPES pH 7.5, 150 mM NaCl, 3 mM EDTA, 0.005% P20; steady-state response against concentration, one-site Langmuir model; apparent Kd for ClpX

Chain of trigger factor (TF) (E. coli) (P0A850 whole entry): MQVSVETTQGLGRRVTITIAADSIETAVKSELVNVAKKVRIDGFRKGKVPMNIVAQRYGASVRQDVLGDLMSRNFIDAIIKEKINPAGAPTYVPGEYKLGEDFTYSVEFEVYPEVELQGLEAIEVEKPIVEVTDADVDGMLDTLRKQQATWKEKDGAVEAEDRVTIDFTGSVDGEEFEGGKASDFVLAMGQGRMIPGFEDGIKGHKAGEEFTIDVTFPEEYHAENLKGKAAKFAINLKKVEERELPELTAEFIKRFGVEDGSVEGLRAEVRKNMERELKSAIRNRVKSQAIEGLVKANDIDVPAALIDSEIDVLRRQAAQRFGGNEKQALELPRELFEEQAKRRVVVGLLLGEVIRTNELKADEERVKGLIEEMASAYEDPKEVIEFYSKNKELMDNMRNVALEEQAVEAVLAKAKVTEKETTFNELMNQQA

ClpX∆ZBD (AAA+ domain of ClpX) (domain or fragment)
Kd: 2000 nM
